Test: Esterase activity: hydrolysis of an activated ester substrate (Table III)
Assay type: biochemical
Conditions: ratio of the apparent second order rate constants (kcat/KM), Sbz versus pNA substrate
Description: Table III: Kinetic constants for the hydrolysis of an amide substrate (s-Ala-Ala-Pro-Phe-pNA) and for an activated ester substrate (s-Ala-Ala-Pro-Phe-Sbz). The ratio of esterase to amidase activities is the ratio of the apparent second order rate constants (kcat/KM). The aminolysis to hydrolysis ratio was investigated using the thiobenzyl ester substrate with 3.6 mM of the dipeptide Ala-Phe-amide as the nucleophile.
Kinetic Assays. The esterase and amidase activities were obtained from initial rate measurements using a Kontron Uvikon 860 spectrophotometer. The assay for esterase activity utilized the substrate s-Ala-Ala-Pro-Phe-Sbz at (25°±0.2° C.) in 100 mM Tris-HCl (pH 8.60), 4% (v/v) dimethylsulfoxide, 0.005% (v/v) Tween 80. With the non-cysteine containing proteases, DTNB (Ellman (1959), Arch. Biochem. Biophys., 82, 70-77) was added to a concentration of 37.5 μM to visualize the release of thiolbenzoate upon hydrolysis of the substrate. […] The amidase activities were measured under identical conditions by following the increase in absorbance at 412 nm upon hydrolysis of p-nitroanilide from s-Ala-Ala-Pro-Phe-pNA.

esterase/amidase: 4.8
B1: wild type: wild type subtilisin (BPN') from Bacillus amyloliquefaciens (protein, UniProt P00782 108-382, looked up)
Subtilisin BPN': AQSVPYGVSQIKAPALHSQGYTGSNVKVAVIDSGIDSSHPDLKVAGGASMVPSETNPFQDNNSHGTHVAGTVAALNNSIGVLGVAPSASLYAVKVLGADGSGQYSWIINGIEWAIANNMDVINMSLGGPSGSAALKAAVDKAVASGVVVVAAAGNEGTSGSSSTVGYPGKYPSVIAVGAVDSSNQRASFSSVGPELDVMAPGVSIQSTLPGNKYGAYNGTSMASPHVAGAAALILSKHPNWTNTQVRSSLENTTTKLGDSFYYGKGLINVQAAAQ

Source: patent US5403737A, “Serine protease variants having peptide ligase activity” (priority 1993, dated 1995)
